Reference: paper PMC12265263, “H2A.X N-terminal acetylation is a newly identified NAA40-mediated modification that is responsive to UV irradiation” (Epigenetics & Chromatin, 2025)

How the values were obtained:
[1] = molecular target: T1, human NAA40 WT (Homo sapiens, UniProt Q86UY6); assay: Fluorescence-based in vitro Nt-acetylation assay, N-terminal 17-mer peptides, wild-type NAA40; format: biochemical; details: for Nt-acetylation by recombinant wild type NAA40: 17-mer peptide 15 μM, 0.1 μM hNAA40, 15 μM Thioglo4, 25 mM HEPES pH 7.5, 150 mM NaCl, 0.01% Triton X100, 5 min, fluorescence ex 410/em 475 nm, ΔRFU/min, triplicate, repeated two times, Fig. 1E
T1 construct: GST (N); made in house; host or cells: E. coli BL21 (DE3) codon plus RIL
Method: (§1) hNAA40 (NCBI: NM_024771.4) WT and E139Q were cloned in pGEX-5 × 1 vector. The plasmids were transformed in BL21 (DE3) codon plus RIL pACYC E. coli cells, generously provided by Till Bartke (Institute of Functional Epigenetics, Helmholtz Munich). The transformed bacteria were grown in 40 mL Lysogeny Broth (LB) medium complemented with 100 μg/mL Ampicillin (Sigma A9518) and 25 μg/mL Chloramphenicol (Sigma C0378-5G) for 16 h at 37 °C. Final culture volume was adjusted to 400 mL with LB and the growth was resumed for 2 h. Protein expression was initiated by adding 0.1 mM isopropyl β-D-1-thiogalactopyranoside (IPTG) (Thermo Fisher Scientific 15529019) and incubating further for 4 h at 37 °C. Bacteria were pelleted and resuspended in ice cold PBS/1% Triton-X100 supplemented with protease inhibitors. Cells were lysed by small probe sonication (amplitude 30%, 3 × 45 s on ice). Lysate bacteria were pelleted, and the supernatant was incubated with Glutathione agarose beads (Cytiva 17075601) for 1 h. Then, washing steps were made with ice cold PBS/1% Triton-X100 and ice-cold PBS. The beads with the recombinant GST-NAA40 WT or E139Q were stored at − 20 °C in 80% PBS/20% glycerol. To obtain the GST tagged hNAA40, the buffer 50 mM Tris HCL pH 8, 20 mM reduced Glutathione-20% glycerol was used to elute the GST-NAA40. To obtain the untagged version of hNAA40, hNAA40 was enzymatically cut by Factor Xa (NEB P8010S) from the beads and was dialyzed in 50 mM Tris–HCL pH 7.5, 100 mM NaCl, 25% Glycerol. The recombinant proteins were confirmed by SDS-PAGE and the concentrations were determined using the BIO-RAD protein assay dye reagent (BIO-RAD 5000006) and Nanodrop 1000.
An adaptation of the previous described fluorescence assay was used to study the kinetics of hNAA40 with the histone substrates H2A.X, H2A, and H4. Specifically, the full-length histone proteins H2A.X (TEBU BIO 23615-0307), H2A, H4, and H2B, and 17-mer peptides corresponding to the N-terminal end of H4, H2A.X, H2A.J, SMARCD2 were tested with WT or E139Q hNAA40. The peptides used in this study were synthesized by BIOSYNTAN GmbH, with > 95% purity. Final substrate concentration was 15μM for the rate comparison between WT and E139Q hNAA40 (ΔRFU/min), and for the Km determination the concentration ranged from 0.1 μM to 25 μM (1:2 dilutions). The reactions were in triplicate, repeated two times and contained 15 μM Thioglo4 (Merck 595504), 10 μM Acetyl coenzyme A lithium salt (Santa Cruz sc-214465), 25 mM HEPES pH 7.5, 150 mM NaCl, 0.01% Triton X100), 0.1μM hNAA40 in a final volume of 40 μl. The reaction was initiated with the addition of the substrate. The fluorescence was monitored with Tecan Spark multimode reader with excitation 410 ± 20 nm and emission 475 ± 20 nm, and the duration of the reaction was 5 min. We generated the standard curve y = 685.2*X-92.53 using 0–10 μM 1:2 dilutions of Coenzyme A sodium salt hydrate (Merck C13144) and 25 mM HEPES pH 7.5, 150 mM NaCl, 0.01% Triton X100. GraphPad Prism 8 was used for the enzyme kinetics analyses.

[2] = test system: human NAA40 E139Q; assay: Fluorescence-based in vitro Nt-acetylation assay, N-terminal 17-mer peptides, catalytically inactive NAA40 E139Q; format: biochemical; details: 17-mer peptide 15 μM, 10 μM acetyl-CoA, 0.1 μM hNAA40 E139Q, 25 mM HEPES pH 7.5, 5 min, triplicate, repeated two times, Fig. 1E
Method: as §1
An adaptation of the previous described fluorescence assay was used to study the kinetics of hNAA40 with the histone substrates H2A.X, H2A, and H4. […] The fluorescence was monitored with Tecan Spark multimode reader with excitation 410 ± 20 nm and emission 475 ± 20 nm, and the duration of the reaction was 5 min. […]

Nt-acetylation by recombinant wild type NAA40 ([1]; 10 μM acetyl-CoA) | Substance | Nt-acetylation by catalytically inactive NAA40 (E139Q) [2] | Michaelis constant (Km), stated as affinity (inverse measure) ([1]; 17-mer peptides 0.1 μM to 25 μM (1:2 dilutions), 10 μM acetyl-CoA, 0.1 μM hNAA40, pH 7.5, Fig. 1F) | catalytic efficiency (kcat/Km) ([1]; 17-mer peptides, Fig. 1H)
Nt-acetylated by the wild-type | H2A.J peptide: 17 amino acid long peptide corresponding to the N-terminal end of H2A.J (MSGRGKQGGKVRAKAKS; UniProt Q9BTM1 1-17, looked up, fragment) | not the catalytically inactive human NAA40 | – | –
Nt-acetylated by the wild-type | H2A.X peptide: 17 amino acid long peptide corresponding to the N-terminal end of H2A.X (SGRGKTGGKARAKAKSR; UniProt P16104 2-18, looked up, fragment) | not the catalytically inactive human NAA40 | – | –

Substance | Nt-acetylation by recombinant wild type NAA40 ([1]; 10 μM acetyl-CoA) | Nt-acetylation by catalytically inactive NAA40 (E139Q) [2] | Michaelis constant (Km), stated as affinity (inverse measure) ([1]; 17-mer peptides 0.1 μM to 25 μM (1:2 dilutions), 10 μM acetyl-CoA, 0.1 μM hNAA40, pH 7.5, Fig. 1F) | catalytic efficiency (kcat/Km) ([1]; 17-mer peptides, Fig. 1H)
SMARCD2 peptide: 17 amino acid long peptide corresponding to the N-terminal end of SMARCD2 (MSGRGAGGFPLPPLSPG; UniProt Q92925 1-17, looked up, fragment) | Nt-acetylated by the wild-type | not the catalytically inactive human NAA40 | significantly lower | significantly lower than histones
